Assays:
purified protein [1] = substrate: C=C(O[C@H]1C=CC=C(C(=O)O)[C@@H]1O)C(=O)O; assay: purified protein; assay type: biochemical, Bacillus subtilis; conditions: 50 mM Tris-HCl pH 7.8, 20 mM NaCl, 5 mM MgSO4, 23 °C, co-substrate α-ketoglutarate
purified protein [2] = substrate: O=C(O)CCC(=O)C(=O)O; assay: purified protein; assay type: biochemical, Bacillus subtilis; conditions: 50 mM Tris-HCl pH 7.8, 20 mM NaCl, 5 mM MgSO4, 23 °C, co-substrate isochorismate

Protein	Km (purified protein [1]) [µM]	kcat (purified protein [1]) [s⁻¹]	kcat/Km (purified protein [1]) [M⁻¹ s⁻¹]	Km (purified protein [2]) [µM]	kcat (purified protein [2]) [s⁻¹]	kcat/Km (purified protein [2]) [M⁻¹ s⁻¹]
BsMenD (MenD, SEPHCHC synthase, EC 2.2.1.9) (Bacillus subtilis subsp. subtilis str. 168; I489A) (protein, full length (Thr2-Leu580 seen in crystal); N-terminal hexa-His tag with TEV site kept (24 extra residues); E. coli BL21(DE3); dimer peak used (tetramer in crystal); active site formed by two subunits) MTVNPITHYIGSFIDEFALSGITDAVVCPGSRSTPLAVLCAAHPDISVHVQIDERSAGFFALGLAKAKQRPVLLICTSGTAAANFYPAVVEAHYSRVPIIVLTADRPHELREVGAPQAINQHFLFGNFVKFFTDSALPEESPQMLRYIRTLASRAAGEAQKRPMGPVHVNVPLREPLMPDLSDEPFGRMRTGRHVSVKTGTQSVDRESLSDVAEMLAEAEKGMIVCGELHSDADKENIIALSKALQYPILADPLSNLRNGVHDKSTVIDAYDSFLKDDELKRKLRPDVVIRFGPMPVSKPVFLWLKDDPTIQQIVIDEDGGWRDPTQASAHMIHCNASVFAEEIMAGLTAATRSSEWLEKWQFVNGRFREHLQTISSEDVSFEGNLYRILQHLVPENSSLFVGNSMPIRDVDTFFEKQDRPFRIYSNRGANGIDGVVSSAMGVCEGTKAPVTLVIGDLSFYHDLNGLLAAKKLGIPLTVILVNNDGGGAFSFLPQASEKTHFEDLFGTPTGLDFKHAAALYGGTYSCPASWDEFKTAYAPQADKPGLHLIEIKTDRQSRVQLHRDMLNEAVREVKKQWEL	27 ± 1	0.095 ± 0.00333	3500 ± 167	346 ± 10		
BsMenD (MenD, SEPHCHC synthase, EC 2.2.1.9) (Bacillus subtilis subsp. subtilis str. 168) (protein, full length (Thr2-Leu580 seen in crystal); N-terminal hexa-His tag with TEV site kept (24 extra residues); E. coli BL21(DE3); dimer peak used (tetramer in crystal); active site formed by two subunits) MTVNPITHYIGSFIDEFALSGITDAVVCPGSRSTPLAVLCAAHPDISVHVQIDERSAGFFALGLAKAKQRPVLLICTSGTAAANFYPAVVEAHYSRVPIIVLTADRPHELREVGAPQAINQHFLFGNFVKFFTDSALPEESPQMLRYIRTLASRAAGEAQKRPMGPVHVNVPLREPLMPDLSDEPFGRMRTGRHVSVKTGTQSVDRESLSDVAEMLAEAEKGMIVCGELHSDADKENIIALSKALQYPILADPLSNLRNGVHDKSTVIDAYDSFLKDDELKRKLRPDVVIRFGPMPVSKPVFLWLKDDPTIQQIVIDEDGGWRDPTQASAHMIHCNASVFAEEIMAGLTAATRSSEWLEKWQFVNGRFREHLQTISSEDVSFEGNLYRILQHLVPENSSLFVGNSMPIRDVDTFFEKQDRPFRIYSNRGANGIDGVVSSAMGVCEGTKAPVTLVIGDLSFYHDLNGLLAAKKLGIPLTVILVNNDGGGIFSFLPQASEKTHFEDLFGTPTGLDFKHAAALYGGTYSCPASWDEFKTAYAPQADKPGLHLIEIKTDRQSRVQLHRDMLNEAVREVKKQWEL	1.1 ± 0.2	0.317 ± 0.0167	317000 ± 50000	22 ± 5	0.233 ± 0.0333	10700 ± 5000
BsMenD (MenD, SEPHCHC synthase, EC 2.2.1.9) (Bacillus subtilis subsp. subtilis str. 168; R409A) (protein, full length (Thr2-Leu580 seen in crystal); N-terminal hexa-His tag with TEV site kept (24 extra residues); E. coli BL21(DE3); dimer peak used (tetramer in crystal); active site formed by two subunits) MTVNPITHYIGSFIDEFALSGITDAVVCPGSRSTPLAVLCAAHPDISVHVQIDERSAGFFALGLAKAKQRPVLLICTSGTAAANFYPAVVEAHYSRVPIIVLTADRPHELREVGAPQAINQHFLFGNFVKFFTDSALPEESPQMLRYIRTLASRAAGEAQKRPMGPVHVNVPLREPLMPDLSDEPFGRMRTGRHVSVKTGTQSVDRESLSDVAEMLAEAEKGMIVCGELHSDADKENIIALSKALQYPILADPLSNLRNGVHDKSTVIDAYDSFLKDDELKRKLRPDVVIRFGPMPVSKPVFLWLKDDPTIQQIVIDEDGGWRDPTQASAHMIHCNASVFAEEIMAGLTAATRSSEWLEKWQFVNGRFREHLQTISSEDVSFEGNLYRILQHLVPENSSLFVGNSMPIADVDTFFEKQDRPFRIYSNRGANGIDGVVSSAMGVCEGTKAPVTLVIGDLSFYHDLNGLLAAKKLGIPLTVILVNNDGGGIFSFLPQASEKTHFEDLFGTPTGLDFKHAAALYGGTYSCPASWDEFKTAYAPQADKPGLHLIEIKTDRQSRVQLHRDMLNEAVREVKKQWEL	8.5 ± 1.2	0.0233 ± 0.00167	2670 ± 333	159 ± 18		
BsMenD (MenD, SEPHCHC synthase, EC 2.2.1.9) (Bacillus subtilis subsp. subtilis str. 168; L493A) (protein, full length (Thr2-Leu580 seen in crystal); N-terminal hexa-His tag with TEV site kept (24 extra residues); E. coli BL21(DE3); dimer peak used (tetramer in crystal); active site formed by two subunits) MTVNPITHYIGSFIDEFALSGITDAVVCPGSRSTPLAVLCAAHPDISVHVQIDERSAGFFALGLAKAKQRPVLLICTSGTAAANFYPAVVEAHYSRVPIIVLTADRPHELREVGAPQAINQHFLFGNFVKFFTDSALPEESPQMLRYIRTLASRAAGEAQKRPMGPVHVNVPLREPLMPDLSDEPFGRMRTGRHVSVKTGTQSVDRESLSDVAEMLAEAEKGMIVCGELHSDADKENIIALSKALQYPILADPLSNLRNGVHDKSTVIDAYDSFLKDDELKRKLRPDVVIRFGPMPVSKPVFLWLKDDPTIQQIVIDEDGGWRDPTQASAHMIHCNASVFAEEIMAGLTAATRSSEWLEKWQFVNGRFREHLQTISSEDVSFEGNLYRILQHLVPENSSLFVGNSMPIRDVDTFFEKQDRPFRIYSNRGANGIDGVVSSAMGVCEGTKAPVTLVIGDLSFYHDLNGLLAAKKLGIPLTVILVNNDGGGIFSFAPQASEKTHFEDLFGTPTGLDFKHAAALYGGTYSCPASWDEFKTAYAPQADKPGLHLIEIKTDRQSRVQLHRDMLNEAVREVKKQWEL	39 ± 1	0.317 ± 0.0167	8170 ± 500			
BsMenD (MenD, SEPHCHC synthase, EC 2.2.1.9) (Bacillus subtilis subsp. subtilis str. 168; K299A) (protein, full length (Thr2-Leu580 seen in crystal); N-terminal hexa-His tag with TEV site kept (24 extra residues); E. coli BL21(DE3); dimer peak used (tetramer in crystal); active site formed by two subunits) MTVNPITHYIGSFIDEFALSGITDAVVCPGSRSTPLAVLCAAHPDISVHVQIDERSAGFFALGLAKAKQRPVLLICTSGTAAANFYPAVVEAHYSRVPIIVLTADRPHELREVGAPQAINQHFLFGNFVKFFTDSALPEESPQMLRYIRTLASRAAGEAQKRPMGPVHVNVPLREPLMPDLSDEPFGRMRTGRHVSVKTGTQSVDRESLSDVAEMLAEAEKGMIVCGELHSDADKENIIALSKALQYPILADPLSNLRNGVHDKSTVIDAYDSFLKDDELKRKLRPDVVIRFGPMPVSAPVFLWLKDDPTIQQIVIDEDGGWRDPTQASAHMIHCNASVFAEEIMAGLTAATRSSEWLEKWQFVNGRFREHLQTISSEDVSFEGNLYRILQHLVPENSSLFVGNSMPIRDVDTFFEKQDRPFRIYSNRGANGIDGVVSSAMGVCEGTKAPVTLVIGDLSFYHDLNGLLAAKKLGIPLTVILVNNDGGGIFSFLPQASEKTHFEDLFGTPTGLDFKHAAALYGGTYSCPASWDEFKTAYAPQADKPGLHLIEIKTDRQSRVQLHRDMLNEAVREVKKQWEL	8.4 ± 1.2	0.417 ± 0.0333	50000 ± 5000			
BsMenD (MenD, SEPHCHC synthase, EC 2.2.1.9) (Bacillus subtilis subsp. subtilis str. 168; R428A) (protein, full length (Thr2-Leu580 seen in crystal); N-terminal hexa-His tag with TEV site kept (24 extra residues); E. coli BL21(DE3); dimer peak used (tetramer in crystal); active site formed by two subunits) MTVNPITHYIGSFIDEFALSGITDAVVCPGSRSTPLAVLCAAHPDISVHVQIDERSAGFFALGLAKAKQRPVLLICTSGTAAANFYPAVVEAHYSRVPIIVLTADRPHELREVGAPQAINQHFLFGNFVKFFTDSALPEESPQMLRYIRTLASRAAGEAQKRPMGPVHVNVPLREPLMPDLSDEPFGRMRTGRHVSVKTGTQSVDRESLSDVAEMLAEAEKGMIVCGELHSDADKENIIALSKALQYPILADPLSNLRNGVHDKSTVIDAYDSFLKDDELKRKLRPDVVIRFGPMPVSKPVFLWLKDDPTIQQIVIDEDGGWRDPTQASAHMIHCNASVFAEEIMAGLTAATRSSEWLEKWQFVNGRFREHLQTISSEDVSFEGNLYRILQHLVPENSSLFVGNSMPIRDVDTFFEKQDRPFRIYSNAGANGIDGVVSSAMGVCEGTKAPVTLVIGDLSFYHDLNGLLAAKKLGIPLTVILVNNDGGGIFSFLPQASEKTHFEDLFGTPTGLDFKHAAALYGGTYSCPASWDEFKTAYAPQADKPGLHLIEIKTDRQSRVQLHRDMLNEAVREVKKQWEL				514 ± 54	0.0567 ± 0.00333	117 ± 16.7
BsMenD (MenD, SEPHCHC synthase, EC 2.2.1.9) (Bacillus subtilis subsp. subtilis str. 168; F490A) (protein, full length (Thr2-Leu580 seen in crystal); N-terminal hexa-His tag with TEV site kept (24 extra residues); E. coli BL21(DE3); dimer peak used (tetramer in crystal); active site formed by two subunits) MTVNPITHYIGSFIDEFALSGITDAVVCPGSRSTPLAVLCAAHPDISVHVQIDERSAGFFALGLAKAKQRPVLLICTSGTAAANFYPAVVEAHYSRVPIIVLTADRPHELREVGAPQAINQHFLFGNFVKFFTDSALPEESPQMLRYIRTLASRAAGEAQKRPMGPVHVNVPLREPLMPDLSDEPFGRMRTGRHVSVKTGTQSVDRESLSDVAEMLAEAEKGMIVCGELHSDADKENIIALSKALQYPILADPLSNLRNGVHDKSTVIDAYDSFLKDDELKRKLRPDVVIRFGPMPVSKPVFLWLKDDPTIQQIVIDEDGGWRDPTQASAHMIHCNASVFAEEIMAGLTAATRSSEWLEKWQFVNGRFREHLQTISSEDVSFEGNLYRILQHLVPENSSLFVGNSMPIRDVDTFFEKQDRPFRIYSNRGANGIDGVVSSAMGVCEGTKAPVTLVIGDLSFYHDLNGLLAAKKLGIPLTVILVNNDGGGIASFLPQASEKTHFEDLFGTPTGLDFKHAAALYGGTYSCPASWDEFKTAYAPQADKPGLHLIEIKTDRQSRVQLHRDMLNEAVREVKKQWEL				274 ± 12	0.0183 ± 0.00167	65 ± 3.33
BsMenD (MenD, SEPHCHC synthase, EC 2.2.1.9) (Bacillus subtilis subsp. subtilis str. 168; R106A) (protein, full length (Thr2-Leu580 seen in crystal); N-terminal hexa-His tag with TEV site kept (24 extra residues); E. coli BL21(DE3); dimer peak used (tetramer in crystal); active site formed by two subunits) MTVNPITHYIGSFIDEFALSGITDAVVCPGSRSTPLAVLCAAHPDISVHVQIDERSAGFFALGLAKAKQRPVLLICTSGTAAANFYPAVVEAHYSRVPIIVLTADAPHELREVGAPQAINQHFLFGNFVKFFTDSALPEESPQMLRYIRTLASRAAGEAQKRPMGPVHVNVPLREPLMPDLSDEPFGRMRTGRHVSVKTGTQSVDRESLSDVAEMLAEAEKGMIVCGELHSDADKENIIALSKALQYPILADPLSNLRNGVHDKSTVIDAYDSFLKDDELKRKLRPDVVIRFGPMPVSKPVFLWLKDDPTIQQIVIDEDGGWRDPTQASAHMIHCNASVFAEEIMAGLTAATRSSEWLEKWQFVNGRFREHLQTISSEDVSFEGNLYRILQHLVPENSSLFVGNSMPIRDVDTFFEKQDRPFRIYSNRGANGIDGVVSSAMGVCEGTKAPVTLVIGDLSFYHDLNGLLAAKKLGIPLTVILVNNDGGGIFSFLPQASEKTHFEDLFGTPTGLDFKHAAALYGGTYSCPASWDEFKTAYAPQADKPGLHLIEIKTDRQSRVQLHRDMLNEAVREVKKQWEL	41 ± 4	0.0117 ± 0.00333	300 ± 167			
BsMenD (MenD, SEPHCHC synthase, EC 2.2.1.9) (Bacillus subtilis subsp. subtilis str. 168; R32A) (protein, full length (Thr2-Leu580 seen in crystal); N-terminal hexa-His tag with TEV site kept (24 extra residues); E. coli BL21(DE3); dimer peak used (tetramer in crystal); active site formed by two subunits) MTVNPITHYIGSFIDEFALSGITDAVVCPGSASTPLAVLCAAHPDISVHVQIDERSAGFFALGLAKAKQRPVLLICTSGTAAANFYPAVVEAHYSRVPIIVLTADRPHELREVGAPQAINQHFLFGNFVKFFTDSALPEESPQMLRYIRTLASRAAGEAQKRPMGPVHVNVPLREPLMPDLSDEPFGRMRTGRHVSVKTGTQSVDRESLSDVAEMLAEAEKGMIVCGELHSDADKENIIALSKALQYPILADPLSNLRNGVHDKSTVIDAYDSFLKDDELKRKLRPDVVIRFGPMPVSKPVFLWLKDDPTIQQIVIDEDGGWRDPTQASAHMIHCNASVFAEEIMAGLTAATRSSEWLEKWQFVNGRFREHLQTISSEDVSFEGNLYRILQHLVPENSSLFVGNSMPIRDVDTFFEKQDRPFRIYSNRGANGIDGVVSSAMGVCEGTKAPVTLVIGDLSFYHDLNGLLAAKKLGIPLTVILVNNDGGGIFSFLPQASEKTHFEDLFGTPTGLDFKHAAALYGGTYSCPASWDEFKTAYAPQADKPGLHLIEIKTDRQSRVQLHRDMLNEAVREVKKQWEL	49 ± 7	0.183 ± 0.0167	3670 ± 167			

Source: PMC2914249, “Structure and Reactivity of Bacillus subtilis MenD Catalyzing the First Committed Step in Menaquinone Biosynthesis” (Journal of Molecular Biology, 2010)
